From patent US20040137000A1 (UNITED BIOMEDICAL, published 2004)

B1: deimmunized B4 antibody DIVHv.4/VKv.2 produced by NS0 cells (antibody, human IgG1, V domains shown)
VH: QVQLVQSGAEVKKPGASVKVSCKASGYTFTDYVIHWVRQATGQGLEWIGEIYPGSGSAYSNSKFKDRVTITADKSTNTAYMELRSLRSDDTAVYFCARRGNGTGFAYWGQGTLVTVSS
VL: DIVLTQSPASLAVSPGQRATITCKAGQSVDYDGDSYMNWYQQKPGQPPKLLIYVASNLESGIPSRFSGSGSGTDFTLTINPVEENDTATYYCQQSYKDPLTFGQGTKVEIK
notes: Human IgG1 and human kappa constant regions; NS0 cells; also called DIVHv.4/V v.2
B2: chimeric B4 antibody (antibody, human IgG1, V domains shown)
VH: QVQLQQSGPELVKPGASVRMSCKASGYTFTDYVIHWVKQRTGQGLEWIGEIYPGSGSAYSNAKFKDKATLTADKSSNTAYMQLSSLTSEDSAVYFCARRGNGTGFAYWGQGTLVTVSA
VL: DIVLTQSPASLAVSLGQRATISCKAGQSVDYDGDSYMNWYQQKPGQPPKLLIYVASNLESGIPARFSGSGSGTDFTLNIHPVEEEDAATYYCQQSYKDPLTFGAGTKLELK
notes: Fully murine B4 variable regions joined to human IgG1 and human kappa constant regions; also called B4 chimeric antibody; chimeric antibody
B3: deimmunized B4 antibody DIVHv.4/VKv.3 produced by NS0 cells (antibody, human IgG1, V domains shown)
VH: QVQLVQSGAEVKKPGASVKVSCKASGYTFTDYVIHWVRQATGQGLEWIGEIYPGSGSAYSNSKFKDRVTITADKSTNTAYMELRSLRSDDTAVYFCARRGNGTGFAYWGQGTLVTVSS
VL: DIVLTQSPASLAVSPGQRATITCKAGQSVDYDGDSYMNWYQQKPGQPPKLLIYVASNLESGIPSRFSGSGSGTDFTLTINPVEENDTATYYCQQSYKDPLAFGPGTKVEIK
notes: Human IgG1 and human kappa constant regions; NS0 cells; also called DIVHv.4/V v.3

Assays:
[1] = target: CD4 on the surface of host T cells (HIV receptor complex involving CD4) (UniProt P01730 26-458, limits assumed); experiment: cell-based or functional assay
[2] = target: T1, recombinant soluble CD4 (rsCD4) (UniProt P01730 26-396, limits assumed); experiment: ELISA on rsCD4
T1 construct: Bought reagent coated on ELISA plates at 0.25 µg/ml; also called solid-phase rsCD4

[3] = target: T1, recombinant soluble CD4 (rsCD4); experiment: ELISA, rsCD4 coated at 0.25 µg/ml
Text: Tween® 20 in PBS. Various dilutions of the chimeric antibody and the mouse antibody as the positive control were applied. Detection was with peroxidase conjugated goat anti-human IgG and sheep anti-mouse for chimeric and mouse antibodies respectively. Color was developed with OPD.
Both the chimeric and mouse antibodies provided increases in A₄₉₂ at all concentrations of antibodies when added to the solid-phase rsCD4. This assay confirmed that the cloned and sequenced heavy and light chain variable regions retained the correct recognition site.

Binder | Antibody Conc (µg/ml) at 50% Inhibition; MT-2 microplaque neutralization, HIV-1 TH036 (PBL), clade E [1] | Antibody Conc (µg/ml) at 50% Inhibition; MT-2 microplaque neutralization, HIV-1 UG029 (PBL), clade A [1] | Antibody Conc (µg/ml) at 50% Inhibition; MT-2 microplaque neutralization, HIV-1 VL135 (PBL), clade B [1] | fold reduction in binding compared to the chimeric antibody [2] | fold reduction in A492 compared to the original mouse antibody [3]
B1 | 0.32 µg/mL | 0.48 µg/mL | 0.3 µg/mL | < 3 fold | 
B2 |  |  |  |  | 10 fold
B3 | 0.63 µg/mL | 1.1 µg/mL | 0.48 µg/mL | 5 fold | 
